US20220348635A1, “COMPOSITIONS AND METHODS FOR NEUROLOGICAL DISEASES” (Coda Biotherapeutics, Inc., priority 2019, published 2022)
Positions count from the first letter of the chain named. In names and notes the source's numbering stands.

B1: L131S, S172D in SEQ ID NO: 33: engineered chimeric α7-nAChR/GlyRα1 LGIC receptor: SEQ ID NO: 33 with substitutions L131S and S172D (protein)
chain: MRCSPGGVWLALAASLLHVSLQGEFQRKLYKELVKNYNPLERPVANDSQPLTVYFSLSLLQIMDVDEKNQVLTTNIWLQMSWTDHYLQWNVSEYPGVKTVRFPDGQIWKPDILLYNSADERFDATFHTNVSVNSSGHCQYLPPGIFKSSCPMDLKNFPMDVQTCKLKFGSWDYGGWSLDLQMQEADISGYIPNGEWDLVGIPGKRSERFYECCKEPYPDVTFTVTMRRRMGYYLIQMYIPSLLIVILSWISFWINMDAAPARVGLGITTVLTMTTQSSGSRASLPKVSYVKAIDIWMAVCLLFVFSALLEYAAVNFVSRQHKELLRFRRKRRHHKSPMLNLFQEDEAGEGRFNFSAYGMGPACLQAKDGISVKGANNSNTTNPPPAPSKSPEEMRKLFIQRAKKIDKISRIGFPMAFLIFNMFYWIIYKIVRREDVHNQ
modifications: synthetic sequence of chimeric LGIC
B2: L131T, S172D in SEQ ID NO: 33: engineered chimeric α7-nAChR/GlyRα1 LGIC receptor: SEQ ID NO: 33 with substitutions L131T and S172D (protein)
chain: B1 chain with S131T
modifications: synthetic sequence of chimeric LGIC
B3: Y115E in SEQ ID NO: 33: SEQ ID NO: 33 chimeric receptor with single substitution Y115E (protein)
chain: B1 chain with Y115E, S131L, D172S
modifications: synthetic sequence of chimeric LGIC
B4: Y115D in SEQ ID NO: 33: SEQ ID NO: 33 chimeric receptor with single substitution Y115D (protein)
chain: B1 chain with Y115D, S131L, D172S
modifications: synthetic sequence of chimeric LGIC

Legend:
Format in all cases: cell-based
[1] = YFP quench plate reader assay, response to ABT-126; conditions: LX293T YFP reporter cells; for percent quench of YFP fluorescence, 50 nM abt: 50 nM ABT-126; for percent quench of YFP fluorescence, 100 nM abt: 100 nM ABT-126; for percent quench of YFP fluorescence, 300 nM abt: 300 nM ABT-126; for percent quench of YFP fluorescence, 1 uM abt: 1 uM ABT-126
Text: (§1) FIGS. 1A-FIG. 1G show the heat maps of the percent quench of YFP fluorescence in the mutants of the engineered chimeric receptor SEQ ID NO:33 that comprise the indicated double amino acid substitutions following stimulation by various doses of either acetylcholine or the indicated non-native ligand. Ligand doses are written across the top of each chart. Numbers in the boxes indicate the absolute amount of quench observed. Dark blue=80% maximal quench of YFP reporter. Light blue=quench of 30-80%. White=10-30%. Orange=0-10% quench. Negative values represent non-responders that have a negative quench due to a stimulation artifact. SEQ ID NO:29 is a non-responding chimera used as a negative control. Abbreviations for non-native ligand names: abt: ABT-126; ach: acetylcholine; apn: APN-1125; azd: AZD-0328; brd: TC-5619; fac: RG3487; tc6: TC-6987.
(§2) Tables 2-8 below lists percent quench of YFP fluorescence following stimulation of the indicated engineered receptor by various doses of either acetylcholine or the non-native ligand.
(§3) To screen these mutant LGICs for those having novel response profiles to ligands, an anion reporter assay was developed to assess the function of channels in a high throughput format. In this assay, cells expressing a YFP reporter whose fluorescence is quenched in the presence of anion are transfected with DNA encoding the channel of interest. Upon exposure to ligand, channels that are activated will flux anion, resulting in a dose-dependent quench of the YFP that can be detected on a plate reader.
(§4) Lenti-X 293T cells (LX293T, Clontech) were maintained in DMEM containing 10% FBS and 1% penicillin/streptomycin (Invitrogen). […] Two days before assay, cells were split at a density of 20,000 cells/well in a 96-well tissue culture plate coated with poly-d lysine (Thermo Scientific). The next day, the cells were transiently transfected with 0.1 μg of DNA per well using standard Fugene protocol (Promega). On the day of assay, cells were washed 2 times in 1× extracellular solution (1×ECS: 140 mM NaCl, 5 mM KCl, 1 mM MgCl2, 2 mM CaCl2, 10 mM HEPES, 10 mM glucose, pH 7.2, mOsms 300). After the last wash, 100 μL of 1×ECS was added to the wells and the plate was incubated at 37° C. for 30 min. While incubating the plate, the drugs were diluted to a 2× concentration in 1×ECS-NaI (same components as 1×ECS except the 140 mM NaCl was replaced by 140 mM NaI). The plates were then read on a Flexstation3 (Molecular Devices). Each well, 8 wells at a time, of the plate is read for 2 min using a Flexstation3 (Molecular Devices) as follows: 1) a baseline YFP fluorescence is read for 17 sec, 2) 100 μL of ligand is added, and 3) the changes in YFP fluorescence are then measured every 1.3 sec for the remaining time.
(§5) FIG. 1 provides heat maps of the percent quench of YFP fluorescence following stimulation by various doses of either acetylcholine or the non-native ligand as indicated in the Figure. A positive fluorescence signal, as indicated by blue shaded cells, indicate that the engineered receptor is activated by the non-native ligand at that concentration. […] Table 12 lists the EC50 values for the indicated double mutants to acetylcholine (Ach) and TC-5619 as determined from the YFP fluorescence plate reader experiment.

[2] = YFP quench plate reader assay, response to acetylcholine; conditions: LX293T YFP reporter cells; for percent quench of YFP fluorescence, 10 uM ach: 10 uM acetylcholine; for percent quench of YFP fluorescence, 100 uM ach: 100 uM acetylcholine; for percent quench of YFP fluorescence, 1 mM ach: 1 mM acetylcholine; for percent quench of YFP fluorescence, 3 mM ach: 3 mM acetylcholine
Text: as §1, §2, §3, §4, §5

[3] = YFP quench plate reader assay, response to APN-1125; conditions: LX293T YFP reporter cells; for percent quench of YFP fluorescence, 100 nM apn: 100 nM APN-1125; for percent quench of YFP fluorescence, 1 uM apn: 1 uM APN-1125; for percent quench of YFP fluorescence, 30 uM apn: 30 uM APN-1125
Text: as §1, §2, §3, §4, §5

[4] = YFP quench plate reader assay, response to AZD-0328; conditions: LX293T YFP reporter cells; for percent quench of YFP fluorescence, 100 nM azd: 100 nM AZD-0328; for percent quench of YFP fluorescence, 300 nM azd: 300 nM AZD-0328; for percent quench of YFP fluorescence, 30 uM azd: 30 uM AZD-0328
Text: as §1, §2, §3, §4, §5

[5] = YFP quench plate reader assay, response to TC-5619; conditions: LX293T YFP reporter cells
Text: as §1, §2, §3, §4, §5

[6] = YFP quench plate reader assay, response to RG3487; conditions: LX293T YFP reporter cells; for percent quench of YFP fluorescence, 30 nM fac: 30 nM RG3487; for percent quench of YFP fluorescence, 300 nM fac: 300 nM RG3487; for percent quench of YFP fluorescence, 30 uM fac: 30 uM RG3487
Text: as §1, §2, §3, §4, §5

[7] = YFP quench plate reader assay, response to TC-6987; conditions: LX293T YFP reporter cells; for percent quench of YFP fluorescence, 1 uM tc6: 1 uM TC-6987; for percent quench of YFP fluorescence, 10 uM tc6: 10 uM TC-6987; for percent quench of YFP fluorescence, 500 uM tc6: 500 uM TC-6987
Text: as §1, §2, §3, §4, §5

[8] = High throughput electrophysiology in HEK293T cells, AZD-0328; conditions: HEK293T cells, held at −60 mV
Procedure: To confirm the EC50s determined by plate reader as well as develop a better understanding of maximum current flow, the engineered receptors were subjected to high throughput electrophysiology system, as described below. For HEK293T studies, cDNAs encoding ion channels were cloned into pcDNA3.1 using standard recombination techniques. HEK293T cells from Clontech (Lenti-X™ 293T Cell Line) were cultured in DMEM supplemented with 10% FBS and 1% Pen/Strep to 40-50% confluence using standard cell culture protocols, transfected with ion channel plasmids at a concentration of 18 μg per 15 cm dish using Fugene 6, and grown for an additional 24 hours. Cells were then assayed on a electrophysiological system (IonFluxHT and/or Mercury, Fluxion Biosciences) in which dose-response relationships may be assessed through a microfluidics-based platform for establishing whole cell configurations. Ensemble plates were primed with extracellular buffer (140 mM NaCl, 5 mM KCl, 2 mM CaCl2), 1 mM MgCl2, 10 mM HEPES, and 10 mM glucose, pH 7.2 with NaOH, mOsm 310), intracellular buffer (145 mM CsCl, 2 mM CaCl2, 2 mM MgCl2, 10 mM HEPES, and 10 mM EGTA, pH 7.2 with CsOH, mOsm 305), as adapted from Lynagh and Lynch, and test compounds (stocks prepared fresh) diluted in extracellular buffer. Cells were then released from the plate with Accutase, centrifuged, resuspended in extracellular buffer, and loaded into Ensemble plates. Cells were then subjected to a standard protocol for priming, trapping, breaking, and establishing whole cell configuration, with cells held at −60 mV throughout the recording. After recording baseline, progressive doses of test compounds were applied using the IonFlux software to assess dose response relationships. Data were then analyzed off-line using custom Python scripts to convert data to .csv format, re-plot traces, and apply QC measurements to reject unstable recordings (i.e. thresholding based on access resistance and/or standard deviation in baseline, as well as artifact rejection). Peak currents were then calculated and population data were fit using a 4-parameter logistic equation as described by the Hill Equation. Currents were measured on an automated patch clamp system (Fluxion Biosciences) following 1 second addition of drug and the EC50 values calculated are tabulated below in Table 13.

Row | Molecule | percent quench of YFP fluorescence, 50 nM abt [1] | percent quench of YFP fluorescence, 100 nM abt [1] | percent quench of YFP fluorescence, 300 nM abt [1] | percent quench of YFP fluorescence, 1 uM abt [1] | percent quench of YFP fluorescence, 10 uM ach [2] | percent quench of YFP fluorescence, 100 uM ach [2] | percent quench of YFP fluorescence, 1 mM ach [2] | percent quench of YFP fluorescence, 3 mM ach [2] | percent quench of YFP fluorescence, 100 nM apn [3] | percent quench of YFP fluorescence, 1 uM apn [3] | percent quench of YFP fluorescence, 30 uM apn [3] | percent quench of YFP fluorescence, 100 nM azd [4] | percent quench of YFP fluorescence, 300 nM azd [4] | percent quench of YFP fluorescence, 30 uM azd [4] | percent quench of YFP fluorescence, 30 nM fac [6] | percent quench of YFP fluorescence, 300 nM fac [6] | percent quench of YFP fluorescence, 30 uM fac [6] | percent quench of YFP fluorescence, 1 uM tc6 [7] | percent quench of YFP fluorescence, 10 uM tc6 [7] | percent quench of YFP fluorescence, 500 uM tc6 [7] | also measured
1 | B1 | −11.96% | −10.72% | 11.65% | −3.06% | −11.3% | −27.53% | 2.84% | 14.65% | 14.26% | 45.55% | 64.93% | −9.32% | 4.94% | 60.61% | −23.44% | 2.75% | 61.44% | −20.99% | −27.62% | −24.22% | percent quench of YFP fluorescence, 1 nM brd ([5]; 1 nM TC-5619): −1.13%; percent quench of YFP fluorescence, 3 nM brd ([5]; 3 nM TC-5619): −3.83%; percent quench of YFP fluorescence, 10 nM brd ([5]; 10 nM TC-5619): −3.78%; percent quench of YFP fluorescence, 100 nM brd ([5]; 100 nM TC-5619): −2.03%; percent quench of YFP fluorescence, 1 uM brd ([5]; 1 uM TC-5619): 1.68%; percent quench of YFP fluorescence, 10 uM fac ([6]; 10 uM RG3487): 69.71%
2 | B2 | −11.09% | −10.37% | −4% | 4.05% | −12.24% | −26.23% | −1.16% | 2.97% | 1.23% | 35.77% | 68.29% | −7.02% | −0.48% | 70.16% | −21.36% | 4.17% | 65.94% | −21.8% | −27.08% | −21.56% | 
3 | B3 |  |  |  |  |  |  |  |  |  |  |  |  |  |  |  |  |  |  |  |  | EC50 AZD-0328 [8]: no activity
4 | B4 |  |  |  |  |  |  |  |  |  |  |  |  |  |  |  |  |  |  |  |  | EC50 AZD-0328 [8]: no activity
